From patent EP4786492A1

Experiments:
[1] = biological target: human delta-like ligand 3 (DLL3) on SHP77 cells (human) (UniProt Q9NYJ7); experiment: FACS on SHP77 cells
[2] = biological target: DLL3 endogenously expressed on NCI-H82 cells (UniProt Q9NYJ7); experiment: FACS on NCI-H82 cells; antibody 4 nM
[3] = biological target: DLL3 endogenously expressed on NCI-H82 cells (UniProt Q9NYJ7); experiment: FACS on NCI-H82 cells; antibody 20 nM
[4] = biological target: DLL3 endogenously expressed on NCI-H82 cells (UniProt Q9NYJ7); experiment: FACS on NCI-H82 cells; antibody 0.8 nM
[5] = biological target: DLL3 endogenously expressed on NCI-H82 cells (UniProt Q9NYJ7); experiment: FACS on NCI-H82 cells; antibody 100 nM
[6] = biological target: DLL3 endogenously expressed on NCI-H82 cells (UniProt Q9NYJ7); experiment: FACS on NCI-H82 cells; antibody 0.16 nM
[7] = biological target: human DLL3 protein expressed on CHO-K1 recombinant cells (human DLL3 extracellular segment fused to EpCAM transmembrane and intracellular regions) (human) (UniProt Q9NYJ7); experiment: FACS, CHO-K1 hDLL3 cells, 4 nM antibody
Chain of human DLL3 protein expressed on CHO-K1 recombinant cells (human DLL3 extracellular segment fused to EpCAM transmembrane and intracellular regions) (human) (Q9NYJ7 other isoform, or with tags, fused parts or gaps limits assumed): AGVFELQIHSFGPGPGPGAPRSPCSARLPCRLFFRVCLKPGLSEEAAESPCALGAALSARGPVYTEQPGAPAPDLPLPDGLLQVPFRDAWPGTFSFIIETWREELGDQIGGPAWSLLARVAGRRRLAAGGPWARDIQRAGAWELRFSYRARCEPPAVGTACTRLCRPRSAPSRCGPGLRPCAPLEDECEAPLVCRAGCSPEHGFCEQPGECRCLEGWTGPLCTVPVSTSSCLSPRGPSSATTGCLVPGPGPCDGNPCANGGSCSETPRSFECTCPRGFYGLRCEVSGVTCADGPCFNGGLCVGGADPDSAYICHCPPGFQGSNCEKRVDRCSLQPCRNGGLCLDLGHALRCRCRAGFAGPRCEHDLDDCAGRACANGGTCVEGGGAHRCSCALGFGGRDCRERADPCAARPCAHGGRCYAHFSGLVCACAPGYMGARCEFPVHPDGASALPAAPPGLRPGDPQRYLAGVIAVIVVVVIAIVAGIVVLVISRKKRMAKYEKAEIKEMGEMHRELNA

[8] = biological target: mouse DLL3 on CHO-K1-mDLL3 cells (mouse) (UniProt O88516); experiment: FACS, CHO-K1-mDLL3 cells, 4 nM antibody
Chain of mouse DLL3 on CHO-K1-mDLL3 cells (mouse) (O88516 other isoform, or with tags, fused parts or gaps limits assumed): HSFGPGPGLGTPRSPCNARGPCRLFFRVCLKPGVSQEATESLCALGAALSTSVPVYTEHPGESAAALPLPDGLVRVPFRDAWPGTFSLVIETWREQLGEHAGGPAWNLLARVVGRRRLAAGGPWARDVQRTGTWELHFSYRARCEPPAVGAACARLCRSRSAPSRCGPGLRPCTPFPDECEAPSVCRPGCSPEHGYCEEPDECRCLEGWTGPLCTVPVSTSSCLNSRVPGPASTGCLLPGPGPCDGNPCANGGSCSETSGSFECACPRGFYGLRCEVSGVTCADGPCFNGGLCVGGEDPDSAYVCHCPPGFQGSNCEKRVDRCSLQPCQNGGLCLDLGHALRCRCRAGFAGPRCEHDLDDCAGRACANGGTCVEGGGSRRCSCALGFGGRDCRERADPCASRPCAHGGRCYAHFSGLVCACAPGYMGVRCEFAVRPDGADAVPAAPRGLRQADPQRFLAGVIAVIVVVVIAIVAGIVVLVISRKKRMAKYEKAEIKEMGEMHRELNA

[9] = biological target: DLL3 endogenously expressed on NCI-H82 cells (UniProt Q9NYJ7); experiment: FACS on NCI-H82 cells; antibody 0.032 nM
[10] = biological target: human DLL3 protein expressed on CHO-K1 recombinant cells (human DLL3 extracellular segment fused to EpCAM transmembrane and intracellular regions) (human) (UniProt Q9NYJ7); experiment: FACS, CHO-K1 hDLL3 cells, 20 nM antibody
[11] = biological target: mouse DLL3 on CHO-K1-mDLL3 cells (mouse) (UniProt O88516); experiment: FACS, CHO-K1-mDLL3 cells, 20 nM antibody
[12] = biological target: DLL3 endogenously expressed on NCI-H82 cells (UniProt Q9NYJ7); experiment: FACS on NCI-H82 cells; antibody 0.0064 nM
[13] = biological target: human DLL3 protein expressed on CHO-K1 recombinant cells (human DLL3 extracellular segment fused to EpCAM transmembrane and intracellular regions) (human) (UniProt Q9NYJ7); experiment: FACS, CHO-K1 hDLL3 cells, 0.8 nM antibody
[14] = biological target: human DLL3 protein expressed on CHO-K1 recombinant cells (human DLL3 extracellular segment fused to EpCAM transmembrane and intracellular regions) (human) (UniProt Q9NYJ7); experiment: FACS, CHO-K1 hDLL3 cells, 100 nM antibody
[15] = biological target: mouse DLL3 on CHO-K1-mDLL3 cells (mouse) (UniProt O88516); experiment: FACS, CHO-K1-mDLL3 cells, 0.8 nM antibody
[16] = biological target: mouse DLL3 on CHO-K1-mDLL3 cells (mouse) (UniProt O88516); experiment: FACS, CHO-K1-mDLL3 cells, 100 nM antibody
[17] = biological target: DLL3 endogenously expressed on NCI-H82 cells (UniProt Q9NYJ7); experiment: FACS on NCI-H82 cells; antibody 0.00128 nM
[18] = biological target: human DLL3 protein expressed on CHO-K1 recombinant cells (human DLL3 extracellular segment fused to EpCAM transmembrane and intracellular regions) (human) (UniProt Q9NYJ7); experiment: FACS, CHO-K1 hDLL3 cells, 0.16 nM antibody
[19] = biological target: mouse DLL3 on CHO-K1-mDLL3 cells (mouse) (UniProt O88516); experiment: FACS, CHO-K1-mDLL3 cells, 0.16 nM antibody
[20] = biological target: human DLL3 protein expressed on CHO-K1 recombinant cells (human DLL3 extracellular segment fused to EpCAM transmembrane and intracellular regions) (human) (UniProt Q9NYJ7); experiment: FACS, CHO-K1 hDLL3 cells, 0.032 nM antibody
[21] = biological target: monkey DLL3 on CHO-K1-cyno DLL3 cells (cynomolgus monkey); experiment: FACS, CHO-K1-cyno DLL3 cells, 4 nM antibody
Chain of monkey DLL3 on CHO-K1-cyno DLL3 cells (cynomolgus monkey) (chain, as listed by the source limits assumed): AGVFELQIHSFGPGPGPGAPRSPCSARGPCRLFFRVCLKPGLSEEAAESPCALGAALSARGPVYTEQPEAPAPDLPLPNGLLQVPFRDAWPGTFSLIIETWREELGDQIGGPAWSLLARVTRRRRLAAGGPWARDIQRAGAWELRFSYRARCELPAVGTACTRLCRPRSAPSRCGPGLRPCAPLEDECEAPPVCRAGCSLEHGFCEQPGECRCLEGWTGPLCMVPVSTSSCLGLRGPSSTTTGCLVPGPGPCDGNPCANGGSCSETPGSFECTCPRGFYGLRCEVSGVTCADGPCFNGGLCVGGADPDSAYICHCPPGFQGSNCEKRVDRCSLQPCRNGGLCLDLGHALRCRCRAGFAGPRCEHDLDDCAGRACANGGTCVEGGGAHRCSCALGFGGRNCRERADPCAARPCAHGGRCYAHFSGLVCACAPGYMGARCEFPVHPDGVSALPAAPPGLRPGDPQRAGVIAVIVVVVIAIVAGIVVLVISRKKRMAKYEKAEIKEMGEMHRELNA

[22] = biological target: mouse DLL3 on CHO-K1-mDLL3 cells (mouse) (UniProt O88516); experiment: FACS, CHO-K1-mDLL3 cells, 0.032 nM antibody
[23] = biological target: human DLL3 protein expressed on CHO-K1 recombinant cells (human DLL3 extracellular segment fused to EpCAM transmembrane and intracellular regions) (human) (UniProt Q9NYJ7); experiment: FACS, CHO-K1 hDLL3 cells, 0.0064 nM antibody
[24] = biological target: monkey DLL3 on CHO-K1-cyno DLL3 cells (cynomolgus monkey); experiment: FACS, CHO-K1-cyno DLL3 cells, 20 nM antibody
[25] = biological target: mouse DLL3 on CHO-K1-mDLL3 cells (mouse) (UniProt O88516); experiment: FACS, CHO-K1-mDLL3 cells, 0.0064 nM antibody
[26] = biological target: human DLL3 protein expressed on CHO-K1 recombinant cells (human DLL3 extracellular segment fused to EpCAM transmembrane and intracellular regions) (human) (UniProt Q9NYJ7); experiment: FACS, CHO-K1 hDLL3 cells, 0.00128 nM antibody
[27] = biological target: monkey DLL3 on CHO-K1-cyno DLL3 cells (cynomolgus monkey); experiment: FACS, CHO-K1-cyno DLL3 cells, 0.8 nM antibody
[28] = biological target: monkey DLL3 on CHO-K1-cyno DLL3 cells (cynomolgus monkey); experiment: FACS, CHO-K1-cyno DLL3 cells, 100 nM antibody
[29] = biological target: mouse DLL3 on CHO-K1-mDLL3 cells (mouse) (UniProt O88516); experiment: FACS, CHO-K1-mDLL3 cells, 0.00128 nM antibody
[30] = biological target: monkey DLL3 on CHO-K1-cyno DLL3 cells (cynomolgus monkey); experiment: FACS, CHO-K1-cyno DLL3 cells, 0.16 nM antibody
[31] = biological target: monkey DLL3 on CHO-K1-cyno DLL3 cells (cynomolgus monkey); experiment: FACS, CHO-K1-cyno DLL3 cells, 0.032 nM antibody
[32] = biological target: monkey DLL3 on CHO-K1-cyno DLL3 cells (cynomolgus monkey); experiment: FACS, CHO-K1-cyno DLL3 cells, 0.0064 nM antibody
[33] = biological target: monkey DLL3 on CHO-K1-cyno DLL3 cells (cynomolgus monkey); experiment: FACS, CHO-K1-cyno DLL3 cells, 0.00128 nM antibody
[34] = biological target: human DLL1 protein (Acro, Cat. No. DL1-H52H8) (human) (UniProt O00548); experiment: ELISA, coated hDLL1; maximum over 0.1, 1, 10, 100 nM antibody
Chain of human DLL1 protein (Acro, Cat. No. DL1-H52H8) (human) (O00548 18-540 limits assumed): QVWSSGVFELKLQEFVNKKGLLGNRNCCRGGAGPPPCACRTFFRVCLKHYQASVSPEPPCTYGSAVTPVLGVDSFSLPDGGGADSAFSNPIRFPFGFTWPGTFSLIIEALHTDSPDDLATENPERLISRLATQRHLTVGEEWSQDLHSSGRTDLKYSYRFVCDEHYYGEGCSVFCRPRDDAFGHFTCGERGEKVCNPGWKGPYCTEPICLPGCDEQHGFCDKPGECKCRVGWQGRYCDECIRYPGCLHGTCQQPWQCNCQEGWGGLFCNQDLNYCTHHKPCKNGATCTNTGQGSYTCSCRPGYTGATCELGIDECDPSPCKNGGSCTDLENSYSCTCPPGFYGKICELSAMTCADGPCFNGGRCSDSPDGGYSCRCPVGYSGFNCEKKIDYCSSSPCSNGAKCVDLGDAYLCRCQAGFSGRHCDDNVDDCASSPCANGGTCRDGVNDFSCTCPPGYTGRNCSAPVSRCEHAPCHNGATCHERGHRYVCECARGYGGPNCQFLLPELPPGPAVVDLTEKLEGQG

[35] = biological target: human DLL4 protein (Acro, Cat. No. DL4-H5227) (human) (UniProt Q9NR61); experiment: ELISA, coated hDLL4; maximum over 0.1, 1, 10, 100 nM antibody
Chain of human DLL4 protein (Acro, Cat. No. DL4-H5227) (human) (Q9NR61 27-524 limits assumed): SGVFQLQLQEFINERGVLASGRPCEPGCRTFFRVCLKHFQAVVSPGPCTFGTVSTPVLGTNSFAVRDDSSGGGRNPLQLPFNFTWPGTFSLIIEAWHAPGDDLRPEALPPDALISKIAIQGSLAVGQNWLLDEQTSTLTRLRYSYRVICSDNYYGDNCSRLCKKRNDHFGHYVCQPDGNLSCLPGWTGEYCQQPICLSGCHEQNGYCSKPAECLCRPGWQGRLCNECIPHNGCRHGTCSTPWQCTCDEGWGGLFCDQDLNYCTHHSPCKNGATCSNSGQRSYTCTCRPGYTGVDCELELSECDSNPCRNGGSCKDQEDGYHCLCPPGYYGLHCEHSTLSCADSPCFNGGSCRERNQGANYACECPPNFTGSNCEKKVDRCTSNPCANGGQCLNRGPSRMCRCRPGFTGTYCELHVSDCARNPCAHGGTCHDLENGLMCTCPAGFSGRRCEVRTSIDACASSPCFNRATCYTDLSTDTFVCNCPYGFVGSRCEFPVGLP

[36] = biological target: human DLL3 protein (extracellular segment, His tag) (human) (UniProt Q9NYJ7); experiment: SPR (Biacore 8K), antibody captured on Protein A chip, DLL3 antigen in solution, 1:1 Langmuir fit
Chain of human DLL3 protein (extracellular segment, His tag) (human) (Q9NYJ7 27-492): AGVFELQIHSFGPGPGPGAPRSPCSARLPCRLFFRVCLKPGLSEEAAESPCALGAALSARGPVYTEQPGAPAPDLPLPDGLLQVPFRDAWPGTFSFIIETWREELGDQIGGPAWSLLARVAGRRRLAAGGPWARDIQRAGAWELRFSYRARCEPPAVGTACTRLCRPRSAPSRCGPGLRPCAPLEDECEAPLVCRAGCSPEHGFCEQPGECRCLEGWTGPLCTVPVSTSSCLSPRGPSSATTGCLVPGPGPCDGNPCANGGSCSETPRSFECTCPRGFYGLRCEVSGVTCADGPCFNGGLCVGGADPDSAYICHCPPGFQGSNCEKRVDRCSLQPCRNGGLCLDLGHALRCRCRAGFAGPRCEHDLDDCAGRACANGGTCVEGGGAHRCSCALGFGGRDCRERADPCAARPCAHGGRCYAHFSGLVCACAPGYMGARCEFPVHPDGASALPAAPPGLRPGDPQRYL

Chain of DLL3 endogenously expressed on NCI-H82 cells (Q9NYJ7 27-618): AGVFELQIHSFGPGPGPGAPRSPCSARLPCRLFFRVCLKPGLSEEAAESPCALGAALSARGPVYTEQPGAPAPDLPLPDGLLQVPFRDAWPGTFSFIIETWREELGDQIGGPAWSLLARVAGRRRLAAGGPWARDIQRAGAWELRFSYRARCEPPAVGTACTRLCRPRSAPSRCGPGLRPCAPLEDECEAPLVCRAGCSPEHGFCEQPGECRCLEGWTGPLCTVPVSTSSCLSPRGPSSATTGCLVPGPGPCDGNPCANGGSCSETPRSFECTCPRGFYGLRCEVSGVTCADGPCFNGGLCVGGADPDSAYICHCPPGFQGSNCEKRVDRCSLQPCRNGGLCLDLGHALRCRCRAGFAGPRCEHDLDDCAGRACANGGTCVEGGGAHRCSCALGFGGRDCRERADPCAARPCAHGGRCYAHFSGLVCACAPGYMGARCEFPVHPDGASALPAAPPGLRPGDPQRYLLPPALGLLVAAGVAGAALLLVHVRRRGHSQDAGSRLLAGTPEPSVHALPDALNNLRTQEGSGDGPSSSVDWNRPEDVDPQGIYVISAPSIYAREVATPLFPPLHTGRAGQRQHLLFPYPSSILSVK
Chain of human delta-like ligand 3 (DLL3) on SHP77 cells (human) (Q9NYJ7 27-618, stated change not applied): as the sequence (Q9NYJ7 27-618) above

B1: Hab006VL4VH1-hFc (scFv, part only; not given: scFv linker and human IgG1 Fc, V domains shown, not shown: another chain or arm of the molecule; a dimerising Fc or GST; small tags and cut ends)
VL: DIVMTQSPDSLAVSLGERATINCRATKSISKYLAWYQQKPGQTNKLLIFSGSTLQSGVPDRFSGSGSGTDFTLTISSLQAEDVAVYYCQQHHEYPYTFGGGTKVEIK
VH: EVQLVQSGAEVKKPGASVKVSCKASGYTFTSYWMHWVRQAPGQRLEWMGVIDPSDSLANYNQEFKGRVTITVDTSASTAYMELSSLRSEDTAVYYCARDSTVVAPMDYWGQGTTVTVSS
[1]
  MFI at 0.00128 nM: 215 MFI
  MFI at 0.0064 nM: 305 MFI
  MFI at 0.032 nM: 554 MFI
  MFI at 0.16 nM: 1060 MFI
  MFI at 0.8 nM: 1410 MFI
  MFI at 4 nM: 1490 MFI
  MFI at 20 nM: 1660 MFI
  MFI at 100 nM: 1900 MFI
[2]
  MFI: 454
[3]
  MFI: 504
[4]
  MFI: 434
[5]
  MFI: 596
[6]
  MFI: 397
[7]
  MFI: 13600 MFI
[8]
  MFI: 485 MFI
[9]
  MFI: 252
[10]
  MFI: 14500 MFI
[11]
  MFI: 523 MFI
[12]
  MFI: 157
[13]
  MFI: 11300 MFI
[14]
  MFI: 15200 MFI
[15]
  MFI: 404 MFI
[16]
  MFI: 554 MFI
[17]
  MFI: 123
[18]
  MFI: 4120 MFI
[19]
  MFI: 278 MFI
[20]
  MFI: 1130 MFI
[21]
  MFI: 8440 MFI
[22]
  MFI: 165 MFI
[23]
  MFI: 411 MFI
[24]
  MFI: 9050 MFI
[25]
  MFI: 110 MFI
[26]
  MFI: 227 MFI
[27]
  MFI: 7500 MFI
[28]
  MFI: 10500 MFI
[29]
  MFI: 98 MFI
[30]
  MFI: 3350 MFI
[31]
  MFI: 1110 MFI
[32]
  MFI: 424 MFI
[33]
  MFI: 239 MFI
[34]
  Emax of OD450 nm binding value: 0.07 OD450 nm
[35]
  Emax of OD450 nm binding value: 0.08 OD450 nm
[36]
  Kd: 0.286 nM
  koff: 0.000119 s⁻¹
  kon: 415000 M⁻¹ s⁻¹

B2: Hab015VL4VH6a-hFc (scFv, part only; not given: scFv linker and human IgG1 Fc, V domains shown, not shown: another chain or arm of the molecule; a dimerising Fc or GST; small tags and cut ends)
VL: NIVLTQSPATLSLSPGERATLSCKASENVGTYVSWFQQKPGQSPRLLIYGASNRYTGIPARFSGSGSGTDFTLTISSLEPEDFAVYYCGQFYSFPSTFGGGTKVEIK
VH: EVQLVESGGGLVKPGGSLRLSCAASGITFSNFWMNWVRQAPEKGLEWVGQIRLKSDDYATHYAESVKGRFTISREDSKNTVYLQMNSLKTEDTAVYYCTTGYYFDYWGQGTTVTVSS
[1]
  MFI at 0.00128 nM: 101 MFI
  MFI at 0.0064 nM: 114 MFI
  MFI at 0.032 nM: 173 MFI
  MFI at 0.16 nM: 361 MFI
  MFI at 0.8 nM: 692 MFI
  MFI at 4 nM: 821 MFI
  MFI at 20 nM: 943 MFI
  MFI at 100 nM: 1270 MFI
[2]
  MFI: 1050
[3]
  MFI: 1180
[4]
  MFI: 913
[5]
  MFI: 1550
[6]
  MFI: 469
[7]
  MFI: 11200 MFI
[8]
  MFI: 1260 MFI
[9]
  MFI: 211
[10]
  MFI: 12400 MFI
[11]
  MFI: 1460 MFI
[12]
  MFI: 133
[13]
  MFI: 4370 MFI
[14]
  MFI: 12200 MFI
[15]
  MFI: 884 MFI
[16]
  MFI: 1590 MFI
[17]
  MFI: 118
[18]
  MFI: 861 MFI
[19]
  MFI: 361 MFI
[20]
  MFI: 265 MFI
[21]
  MFI: 6820 MFI
[22]
  MFI: 170 MFI
[23]
  MFI: 144 MFI
[24]
  MFI: 7330 MFI
[25]
  MFI: 130 MFI
[26]
  MFI: 120 MFI
[27]
  MFI: 4260 MFI
[28]
  MFI: 7480 MFI
[29]
  MFI: 118 MFI
[30]
  MFI: 1150 MFI
[31]
  MFI: 352 MFI
[32]
  MFI: 153 MFI
[33]
  MFI: 118 MFI
[34]
  Emax of OD450 nm binding value: 0.49 OD450 nm
[35]
  Emax of OD450 nm binding value: 0.64 OD450 nm
[36]
  Kd: 0.000116 nM
  koff: 2.03e-07 s⁻¹
  kon: 1.75e+06 M⁻¹ s⁻¹
